The supplement of paper PMC7877785
± gives the uncertainty stated by the source.

Experiment: self-splicing fitness, log relative to wild type (ln ratio); higher = more splicing; Tetrahymena group I intron in knt gene, E. coli kanamycin selection, DiMSum; sequences stand for … in CUCUCU…GGAGGGAAAAGUUAUCAGGCAUGCACCUGGUAGCUAGUCUUUAAACCAAUAGAUUGCAUCGGUUUAAAAGGCAAGACCGUCAAAUUGCGGGAAAGGGGUCAACAGCCGUUCAGUACCAAGUCUCAGGGGAAACUUUGAGAUGGCCUUGCAAAGGGUAUGGUAAUAAGCUGACGGACAUGGUCCUAACCACGCAGCCAAGUCCUAAGUCAACAGAUCUUCUGUUGAUAUGGAUGCAGUUCACAGACUAAAUGUCGGUCGGGGAAGAUGUAUUCUUCUCAUAAGAUAUAGUCGGACCUCUCCUUAAUGGGAGCUAGCGGAUGAAGUGAUGCAACACUGGAGCCGCUGGGAACUAAUUUGUAUGCGAAAGUAUAUUGAUUAGUUUUGGAGUACUCGUGGUCG
Summary of the method: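 Fitness was computed with DiMSum as the error-weighted combination of replicate fold changes, kanamycin versus none, each normalised to wild type. The library randomised all eight intron nucleotides of the P1ex region, with the intron placed in the knt kanamycin-resistance gene on pET-22b(+) in E. coli BL21(DE3). Six replicate transformations were grown overnight at 37°C or 30°C on LB agar with or without 25 μg/mL kanamycin, plus 100 μg/mL carbenicillin, 50 μM IPTG and 0.2% rhamnose. Pooled colonies were amplicon-sequenced on an Illumina HiSeq 2500.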

Sequence	self-splicing fitness (ln) (30 °C)	self-splicing fitness (ln) (37 °C)
CCCCAGCAAUAUUACGCUGC	-3.41 ± 0.17	-2.06 ± 0.23
CCCCAGCAAUAUUACGCUUC	-4.6 ± 0.32	-2.39 ± 0.27
CCCCAGCAAUAUUACGGAAC	-3.83 ± 0.26	-3.1 ± 0.22
CCCCAGCAAUAUUACGGCUA	-3.77 ± 0.16	-2.34 ± 0.13
CCCCAGCAAUAUUACGGGAC	-3.88 ± 0.18	-2.12 ± 0.14
CCCCAGCAAUAUUACGGGCC	-3.27 ± 0.15	-1.7 ± 0.15
CCCCAGCAAUAUUACGGGUA	-2.89 ± 0.11	-1.25 ± 0.073
CCCCAGCAAUAUUACGGGUU	-3.63 ± 0.11	-1.85 ± 0.092
CCCCAGCAAUAUUACGGUCG	-2.24 ± 0.068	-1.2 ± 0.078
CCCCAGCAAUAUUACGGUCU	-3.81 ± 0.13	-2.73 ± 0.17
CCCCAGCAAUAUUACGUAUA	-4.57 ± 0.34	-3.21 ± 0.28
CCCCAGCAAUAUUACGUAUC	-3.88 ± 0.21	-3.84 ± 0.21
CCCCAGCAAUAUUACGUCAA	-3.29 ± 0.12	-3 ± 0.16
CCCCAGCAAUAUUACGUCCU	-2.36 ± 0.17	-2.14 ± 0.22
CCCCAGCAAUAUUACGUCUU	-3.9 ± 0.12	-2.04 ± 0.12
CCCCAGCAAUAUUACGUUAA	-3.33 ± 0.14	-2.76 ± 0.13
CCCCAGCAAUAUUACGUUAU	-4.15 ± 0.15	-3.29 ± 0.22
CCCCAGCAAUAUUACGUUUG	-4.17 ± 0.15	-2.51 ± 0.12
CCCGAGCAAUAUUACGAAAA	-2.67 ± 0.46	-1.74 ± 0.42
CCCGAGCAAUAUUACGACAA	-2.78 ± 0.3	-2.85 ± 0.41
CCCGAGCAAUAUUACGACUU	-3.24 ± 0.26	-3.01 ± 0.25
CCCGAGCAAUAUUACGCAAU	-3.57 ± 0.25	-2.94 ± 0.29
CCCGAGCAAUAUUACGCCAG	-2.69 ± 0.38	–
CCCGAGCAAUAUUACGCGCC	–	-1.22 ± 0.35

Sequence	self-splicing fitness (ln) (30 °C)	self-splicing fitness (ln) (37 °C)
CCCGAGCAAUAUUACGCUUU	–	-1.35 ± 0.19
CCCGAGCAAUAUUACGGACA	-2.72 ± 0.16	-1.19 ± 0.12
CCCGAGCAAUAUUACGGUAA	-3.81 ± 0.26	-1.46 ± 0.16
CCCGAGCAAUAUUACGUAAU	-4.75 ± 0.45	-2.63 ± 0.32
CCCGAGCAAUAUUACGUACA	-2.87 ± 0.19	-2.25 ± 0.24
CCCGAGCAAUAUUACGUCCG	-2.11 ± 0.4	-1.98 ± 0.36
CCCGAGCAAUAUUACGUCGU	-2.45 ± 0.12	-3.06 ± 0.24
CCCGAGCAAUAUUACGUUCA	-3 ± 0.16	-2.99 ± 0.22
CCCUAGCAAUAUUACGACAG	-2.34 ± 0.13	-3.3 ± 0.29
CCCUAGCAAUAUUACGACCA	-3.35 ± 0.24	-3.33 ± 0.27
CCCUAGCAAUAUUACGAGUU	-2.39 ± 0.14	-3.11 ± 0.2
CCCUAGCAAUAUUACGAUCG	-3.91 ± 0.35	-1.47 ± 0.18
CCCUAGCAAUAUUACGGACA	-2.94 ± 0.32	-2.62 ± 0.24
CCCUAGCAAUAUUACGGGCC	-3.25 ± 0.19	-1.74 ± 0.27
CCCUAGCAAUAUUACGGGCU	-4.04 ± 0.25	-2.71 ± 0.18
CCCUAGCAAUAUUACGGUCG	-2.02 ± 0.068	-0.697 ± 0.092
CCCUAGCAAUAUUACGUCAG	-3.8 ± 0.18	-2.91 ± 0.18
CCCUAGCAAUAUUACGUCGU	-3.42 ± 0.2	-1.43 ± 0.19
CCCUAGCAAUAUUACGUGAU	-2.33 ± 0.076	-2.27 ± 0.14
CCCUAGCAAUAUUACGUGCA	-3.99 ± 0.18	-2.92 ± 0.14
CCCUAGCAAUAUUACGUGCU	-2.99 ± 0.17	-2.58 ± 0.24
CCCUAGCAAUAUUACGUUCC	-2.3 ± 0.22	-2.11 ± 0.24
CCGAAGCAAUAUUACGAAGU	-3.15 ± 0.19	-2.8 ± 0.29
CCGAAGCAAUAUUACGACCU	-3.73 ± 0.32	-2.3 ± 0.36
